The nature of series [1]: Intact half-life during simulated gastric fluid (SGF) digestion. Particulars: SGF pH 1.5, pepsin:polypeptide 1:20 w/w, 37° C.; produced in E. coli unless otherwise noted.
Experimental: Nutritive polypeptide half-life during simulated digestion. One metric for quantifying the breakdown of polypeptides from an intact form to smaller peptides is the intact half-life. In this experiment the nutritive polypeptide was exposed to a series of proteases that are active in the stomach (pepsin) and intestine (trypsin and chymotrypsin), and the presence of intact protein was measured over time. Specifically, the nutritive polypeptide was first treated at a concentration of 2 g/L with simulated gastric fluid (SGF) (0.03 M NaCl, titrated with HCl to pH 1.5 with a final pepsin: polypeptide ratio of 1:20 w/w) at 37° C. Time points were sampled from the reaction and quenched by addition of 0.2 M Na2CO3. […] Time points were sampled from the reaction and quenched by addition of Trypsin/Chymotrypsin Inhibitor (Sigma) solution until 240 min.
Time point samples were analyzed for intact protein by chip electrophoresis, polyacrylamide gel electrophoresis, or western blot. For chip electrophoresis (Labchip GX II), samples were analyzed using a HT Low MW Protein Express LabChip® Kit (following the manufacturer's protocol). A protein ladder was loaded every 12 samples for molecular weight determination (kDa) and quantification. For polyacrylamide gel electrophoresis, samples (1 μg) were separated on a NuPAGE® Novex® Bis-Tris Precast gel (Life Technologies) according to the manufacturer's protocol. The gel was stained using SimplyBlue™ SafeStain (Invitrogen) and imaged using a Chemidoc XRS+ (BioRad) or transferred onto nitrocellulose membranes using the iBlot® Dry Blotting System (Life Technologies) and iBlot® Western Detection Kit (Life Technologies) according to the manufacturer's protocol. Proteins were detected by blotting with Anti-His [C-term]-HRP antibody diluted 3:5000 in Blok™-PO Blocking Buffer using the SNAP i.d.® Protein Detection System (Millipore) according to the manufacturer's protocol. Blots were treated with Luminata Classico Western HRP Substrate (Millipore) according to the manufacturer's protocol and imaged using chemiluminescent detection on the Molecular Imager® Gel Doc™ XR+ System (Bio-Rad). Quantification of intact protein was determined by densitometry using ImageLab (BioRad). For all analysis methods the relative concentration of the polypeptide at each time point (if detected) was plotted overtime and fit to an exponential curve to calculate the intact half-life.
Specifically, the t=0 (enzyme-free control) and t=2 min samples from the SGF digest were analyzed for intact protein as described by chip electrophoresis, SDS-PAGE, western blot, and/or LC-MS/MS. Relative quantities of polypeptides at each time point were determined and the percentage of intact protein remaining at t=2 was determined.
The nature of series [2]: Thermostability, ProteoStat Thermal Shift Stability Kit, temperature of aggregation. Particulars: pH 7.1. Type of series: physicochemical. How it is done:
Thermostability. The thermostability of proteins in a buffer cocktail of Citric Acid and Dibasic Sodium Phosphate over a pH range of 2.8 to 7.1 (preparation described above in Table E31B) was determined using the ProteoStat® Thermal Shift Stability Kit (Enzo Life Sciences) according to the manufacturer's standard protocol. Briefly, protein solutions (˜10 mg/ml) containing 1× ProteoStat TS Detection Reagent were heated from 25° C. to 95° C. at a rate of 0.5° C. per 30 sec using a real-time PCR (rtPCR) thermocycler (BioRad) equipped with a plate reader (SynergyMx, Biotek) while monitoring the fluorescence with a Texas Red filter.

Residue numbers refer to the chain shown, from its start.

B1: SEQID-00690: engineered secreted variant of SEQID-00407 enriched in essential amino acids which retains enzymatic activity (protein, listed as Bacillus subtilis)
chain: ETANKSNELTAPSIKSGTILHAWNWSFNTLKHNMKDIHDAGYTAIQTSPINQVKEGNQGDKSMSNWYWLYQPTSYQIGNRYLGTEQEFKEMCAAAEEYGIKVIVDAVINHTTSDLVGVLSNEVKSIPNWTHGNTQIKNWSDRWDVTQNSLLGLYDWNTQNTQVQSYLKRFLDRALNDGADGFRFDAAKHIELPDDGSYGSQFWPNITRVVMEFQYGEILQDSASRDAAYANYMDVTASNYGHSIRSALKNRNLGVSNIVMYILRVSADKLVTWVESHDTYANDDEESTWMSDDDIRLGWAVIASRSGSTPLFFSRPEGGGNGVRFPGKSQIGDRGSALFEDQAITAVNRFHNVMAGLPKRLSNPNGNNQIFMNQRGSHGVVLANAGSSSVSINTATKLPDGRYDNKAGAGSFQVNDGKLTGTINARSVAVLYPDDIAKAPHVFLENYKTGVTHSFNDQLTITMRADANTTKAVYQINNGPETAFKDGDQFTIGKGDPFGKTYTIMLKGTNSDGVTRTEKYSFVKRDPASAKTIGYQNPNHWSQVNAYIYKHDGSRVIELTGSWPGKPMTKNADGIYTLTLPADTDTTNAKVIFNNGSAQVPGQNQPGFDYVLNGLYNDSGLSGSLPH
modifications: strain 168
On to B1, for which, in series [1], the “SGF Half-life (t½)” value was 264 s.

B2: SEQID-00418: nutritive polypeptide (protein)
chain: VPRVRRQGASSSFDYKSQIVRGVNLGGWLVTEPWITPSLYDSTGGGAVDEWTLCQILGKDEAQAKLSSHWSSFITQSDFDRMAQAGLNHVRIPIGYWAVAPIDGEPYVSGQIDYLDQAVTWARAAGLKVLVDLHGAPGSQNGFDNSGHRGPIQWQQGDTVNQTMTAFDALARRYAQSDTVTAIEAVNEPNIPGGVNEDGLKNYYYGALADVQRLNPSTTLFMSDGFQPVESWNGFMQGSNVVMDTHHYQVFDTGLLSMSIDDHVKTACSLATQHTMQSDKPVVVGEWTGALTDCAKYLNGVGNAARYDGTYMSTTKYGDCTGKSTGSVADFSADEKANTRRYIEAQLEAYEMKSGWLFWTWKTEGAPGWDMQDLLANQLFPTSPTDRQYPHQCS
modifications: Aspergillus niger; strain CBS 513.88 / FGSC A1513
B2: in series [1], the “SGF Half-life (t½)” value was 12 s.

B3: SEQID-00418 (E. coli): nutritive polypeptide (protein)
chain: B2 chain
modifications: Aspergillus niger; strain CBS 513.88 / FGSC A1513
For the molecule B3, the “SGF Half-life (t½)” value in series [1] is 30 s.

B4: SEQID-00302: nutritive polypeptide (protein)
chain: MAKKTVANLSASELSGKKVLVRADFNVPLDNGSISDDTRIRAALPTIQDLTSKGAKVILSSHFGRPQGQVVESMRLTPVAARLSELLGKTVKKCDDCIGEEVAVAVGAMSDGDVLLLENVRFHAAEEKNDPEFAKQLASVADLYVNDAFGTAHRAHASTEGVTKYLSPCVAGYLIEKELQFLQGAIESPQRPLAAIIGGSKVSSKIGVIEALLDKCDKLLLGGGMIFTFYKARGLSVGNSLVEEDKLELAKSLEAKAKEKGVTMLLPTDVVLADKFAADADSQTVSVEAIPDGWMGLDIGPDSVKVFQEALGDCKTVLWNGPMGVFEFEKFAAGTRAIAQTLAELTSTGTTTIIGGGDSVAAVEQLNLGEKMSHISTGGGASLELLEGKQLPGIVALDDA
modifications: Arthrospira platensis C1
notes: nutritive polypeptide
Consider B4, for which, in series [1], the “SGF Half-life (t½)” value is 12 s. In series [2] (heated from 25° C. to 95° C.), the “Tagg (pH 7.1)” value is on record as 46.

B5: SEQID-00305: nutritive polypeptide (protein, listed as Bos taurus)
chain: MPHQYPALTPEQKKELCDIAHRIVAPGKGILAADESTGSIAKRLQSIGTENTEENRRFYRQLLLTADDRVNPCIGGVILFHETLYQKADDGRPFPQVIKAKGGVVGIKVDKGVVPLAGTNGETTTQGLDGLSERCAQYKKDGADFAKWRCVLKIGEHTPSSLAIMENANVLARYASICQQNGIVPIVEPEILPDGDHDLKRCQYVTEKVLAAVYKALSDHHIYLEGTLLKPNMVTPGHACTQKYSHEEIAMATVTALRRTVPPAVPGITFLSGGQSEEEASINLNAINKCPLLKPWALTFSYGRALQASALKAWGGKKENLKAAQEEYVKRALANSLACQGKYTPSGKAGAAASESLFISNHAY
Consider B5, for which, in series [1], the “SGF Half-life (t½)” value is 12 s. For the same molecule, the “Tagg (pH 7.1)” value in series [2] (heated from 25° C. to 95° C.) is 48.

B6: SEQID-00546: protein of the 168 nutritive polypeptide library (protein, listed as Saccharomyces cerevisiae)
chain: MCSAGGIRRPIQIEEFKTAISGMSDMELAQIKTEIENSINHLQRSNARLGKYIAKLEGADDRLEADDSDDLENIDSGDLALYKDSVRENEIVLNNYNERVDALEQETVYRKTGHGKSKHEVEAKDNTNKGPDVDMDNSNVDVVTPNSIFI
modifications: strain ATCC 204508 / S288c
For the molecule B6, in series [1], the “SGF Half-life (t½)” value was below 600 s.

B7: SEQID-00001: nutritive polypeptide (protein, listed as Gallus gallus)
chain: MGSIGAASMEFCFDVFKELKVHHANENIFYCPIAIMSALAMVYLGAKDSTRTQINKVVRFDKLPGFGDSIEAQCGTSVNVHSSLRDILNQITKPNDVYSFSLASRLYAEERYPILPEYLQCVKELYRGGLEPINFQTAADQARELINSWVESQTNGIIRNVLQPSSVDSQTAMVLVNAIVFKGLWEKAFKDEDTQAMPFRVTEQESKPVQMMYQIGLFRVASMASEKMKILELPFASGTMSMLVLLPDEVSGLEQLESIINFEKLTEWTSSNVMEERKIKVYLPRMKMEEKYNLTSVLMAMGITDVFSSSANLSGISSAESLKISQAVHAAHAEINEAGREVVGSAEAGVDAASVSEEFRADHPFLFCIKHIATNAVLFFGRCVSP
For the molecule B7, in series [1], the “SGF Half-life (t½)” value is 300 s.

B8: SEQID-00001 (HEK293): nutritive polypeptide (protein, listed as Gallus gallus)
chain: B7 chain
modifications: expressed in HEK293
As for B8, the “SGF Half-life (t½)” value in series [1] was 516 s.

B9: SEQID-00098: nutritive polypeptide (protein, listed as Lactococcus lactis)
chain: MAVFEKVQDIIVDELGKEKEEVTLETSFEELDADSLDLFQIINDIEDEFDVEVDTEADMKTVADLVKYVENNK
As to B9, the “SGF Half-life (t½)” value in series [1] was 24 s. The “Tagg (pH 7.1)” value in series [2] (heated 25° C. to 95° C., NS = protein not soluble) is reported as above 95.

B10: SEQID-00220: nutritive polypeptide (protein, listed as Bos taurus)
chain: DTKKKVDDDLGTIENLEEAKKKLLKDVEVLSQRLEEKALAYDKLEKTKTRLQQELDDLLVDLDHQ
Take B10: the “SGF Half-life (t½)” value in series [1] is 30 s. Also, in series [2] (heated from 25° C. to 95° C.), the “Tagg (pH 7.1)” value is listed as above 95.

B11: SEQID-00672 (BS): nutritive polypeptide (protein, listed as Saccharomyces cerevisiae)
chain: MSSSESIRMVLIGPPGAGKGTQAPNLQERFHAAHLATGDMLRSQIAKGTQLGLEAKKIMDQGGLVSDDIMVNMIKDELTNNPACKNGFILDGFPRTIPQAEKLDQMLKEQGTPLEKAIELKVDDELLVARITGRLIHPASGRSYHKIFNPPKEDMKDDVTGEALVQRSDDNADALKKRLAAYHAQTEPIVDFYKKTGIWAGVDASQPPATVWADILNKLGKD
modifications: strain ATCC 204508 / S288c
On to B11, for which the “SGF Half-life (t½)” value in series [1] is 18 s.

B12: SEQID-00678 (BS): nutritive polypeptide (protein, listed as Saccharomyces cerevisiae)
chain: B11 chain with R42K
modifications: strain ATCC 204508 / S288c
Take B12: the “SGF Half-life (t½)” value in series [1] was 12 s.

B13: SEQID-00420: nutritive polypeptide (protein)
chain: AAAPLEKRSCTFTSASAAKSGKSSCSTITLDNIAVPAGETLDLTGLKKGTTVIFEGETTFGYKEWKGPLISMSGTDITVKQASGAKINCDGARWWDGKGSNGGKTKPKFFQAHKLDQSSITGLKVYNTPVQGFSILADHLTITDVTIDNSAGTSKGHNTDAFDIGQSTYITIDGATVYNQDDCLAINSGEHITFTNGYCDGGHGLSIGSIGGRSDNTVNDVTISNSKVLNSQNGVRIKTIYGKTGTVENVKFEDITLSDISKYGIVVEQDYENGSPTGTPTNGVKVEDITFKKVTGSVKSSGTDIYILCGSGSCSNWTWSGVDVTGGKKSSKCKNVPSGASCSD
modifications: Aspergillus niger; strain CBS 513.88 / FGSC A1513
With B13, in series [1], the “SGF Half-life (t½)” value was 72 s.

Values taken from patent US20260069656A1, “Nutritive Polypeptides and Formulations Thereof, and Methods of Production and Use Thereof” (Axcella Health Inc., priority 2013, published 2026).
